{"source": "paper PMC6539110", "about": "“A Novel G-Quadruplex Binding Protein in Yeast—Slx9”", "binders": {"B1": {"name": "G4IX (structured_DNA)", "DNA": "AAAAAAAAAAGGGTACGGTGGGTAATAAGGGAAGGTATCGGG"}, "B2": {"name": "G4mut (mut-G4IX) (ssDNA)", "DNA": "AAAAAAAAAAGCGTACGGTGCGTAATAACGCAAGCTATCGCG"}, "B3": {"name": "dsDNA (dsDNA)", "DNA 1": "GACGCTGCCGAATTCTGGCTTGCTAGGACATCTTTGCCCACGTTGACCCG", "DNA 2": "CGGGTCAACGTGGGCAAAGATGTCCTAGCAAGCCAGAATTCGGCAGCGTC"}, "B4": {"name": "fork (dsDNA)", "DNA 1": "B3 DNA 1", "DNA 2": "CGGGTCAACGTGGGCAAAGATGTCCTAGCAATGTAATCGTCTATGACGTC"}, "B5": {"name": "4-fork (4-way junction) (dsDNA)", "DNA 1": "B3 DNA 1", "DNA 2": "B4 DNA 2", "DNA 3": "GACGTCATAGACGATTACATTGCTAGGACATGCTGTCTAGAGACTATCGC", "DNA 4": "GCGATAGTCTCTAGACAGCATGTCCTAGCAAGCCAGAATTCGGCAGCGTC"}, "B6": {"name": "bubble (dsDNA)", "DNA 1": "CGGGTCAACGTGGGCAAAGCCAATGCGATCGGCCAGAATTCGGCAGCGTC", "DNA 2": "B3 DNA 1 with A25C"}, "B7": {"name": "G4TP (G4TP1/G4TP2 in Fig. 1C) (structured_DNA)", "DNA": "AAAAAAAAAAGGGGGAGCTGGGGTAGATGGGAATGTGAGGG"}}, "key": {"Slx9 (6xHis-Slx9) [1]": {"biological_target": "T1, Slx9 (6xHis-Slx9) (Saccharomyces cerevisiae, UniProt P53251 1-210)", "T1 sequence": "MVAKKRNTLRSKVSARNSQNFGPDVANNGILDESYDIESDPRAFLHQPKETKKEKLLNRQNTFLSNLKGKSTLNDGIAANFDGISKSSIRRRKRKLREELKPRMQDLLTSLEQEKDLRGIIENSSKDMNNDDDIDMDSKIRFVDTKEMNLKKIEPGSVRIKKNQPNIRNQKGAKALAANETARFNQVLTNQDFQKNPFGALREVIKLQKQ", "assay": "filter binding; Filter binding: 50 mM Tris/HCl pH 8.0, 125 mM KCl, 5 mM DTT, 10% glycerol, 10 nM DNA, 0-65 uM Slx9, on ice 30 min; MST: 25 nM Cy5-DNA, NaCl (buffer partly given), 0.5% BSA, 0.05% Tween-20, 24 C", "settings": "protein: recombinant, tags: 6xHis (pET28a EcoRI/NotI; about 30 kDa)"}, "Slx9 (6xHis-Slx9) [2]": {"biological_target": "T1, Slx9 (6xHis-Slx9)", "assay": "filter binding; listed as G4TP2; Filter binding: 50 mM Tris/HCl pH 8.0, 125 mM KCl, 5 mM DTT, 10% glycerol, 10 nM DNA, 0-65 uM Slx9, on ice 30 min; MST: 25 nM Cy5-DNA, NaCl (buffer partly given), 0.5% BSA, 0.05% Tween-20, 24 C", "settings": "protein: recombinant; tags: 6xHis (pET28a EcoRI/NotI; about 30 kDa); label: 5' 32P; folded G4"}}, "note": "Positions count from the first letter of the chain named.", "data": [{"binder": "B1", "values": [{"measurement": "Kd", "setting": "Slx9 (6xHis-Slx9) [1]; 5' Cy5 (MST), folded G4", "result": "0.55 ± 0.08", "unit": "µM"}]}, {"binder": "B2", "values": [{"measurement": "Kd", "setting": "Slx9 (6xHis-Slx9) [1]; 5' Cy5 (MST), cannot fold G4", "result": "15.7 ± 3.57", "unit": "µM"}]}, {"binder": "B3", "values": [{"measurement": "Kd", "setting": "Slx9 (6xHis-Slx9) [1]; label: 5' 32P, blunt", "result": "5.27 ± 1.18", "unit": "µM"}]}, {"binder": "B4", "values": [{"measurement": "Kd", "setting": "Slx9 (6xHis-Slx9) [1]; label: 5' 32P, fork 1:2, 5' arm of strand 1 and 3' arm of strand 2 unpaired (about 19 nt)", "result": "4.21 ± 0.64", "unit": "µM"}]}, {"binder": "B5", "values": [{"measurement": "Kd", "setting": "Slx9 (6xHis-Slx9) [1]; label: 5' 32P, four-way junction 1:2 2:3 3:4 4:1", "result": "3.72 ± 0.62", "unit": "µM"}]}, {"binder": "B6", "values": [{"measurement": "Kd", "setting": "Slx9 (6xHis-Slx9) [1]; label: 5' 32P, blunt, central mismatched bubble", "result": "1.73 ± 0.42", "unit": "µM"}]}, {"binder": "B7", "values": [{"measurement": "Kd", "setting": "Slx9 (6xHis-Slx9) [2]", "result": "0.53 ± 0.1", "unit": "µM"}]}]}
